Measured values as given in paper PMC10830565 (2024).

Assays:
GST-BCL7B-CFP = biological target: T1, GST-BCL7B-CFP (Arabidopsis thaliana, UniProt Q9FLP2); assay: GST pull-down
T1 chain: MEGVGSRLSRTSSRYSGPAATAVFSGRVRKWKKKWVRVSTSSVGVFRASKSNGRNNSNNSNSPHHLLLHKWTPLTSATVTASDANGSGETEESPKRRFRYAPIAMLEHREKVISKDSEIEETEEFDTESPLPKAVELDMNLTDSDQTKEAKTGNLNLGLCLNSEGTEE

GST-BCL7A-YFP = biological target: T2, GST-BCL7A-YFP (Arabidopsis thaliana, UniProt F4JL58); assay: GST pull-down
T2 chain: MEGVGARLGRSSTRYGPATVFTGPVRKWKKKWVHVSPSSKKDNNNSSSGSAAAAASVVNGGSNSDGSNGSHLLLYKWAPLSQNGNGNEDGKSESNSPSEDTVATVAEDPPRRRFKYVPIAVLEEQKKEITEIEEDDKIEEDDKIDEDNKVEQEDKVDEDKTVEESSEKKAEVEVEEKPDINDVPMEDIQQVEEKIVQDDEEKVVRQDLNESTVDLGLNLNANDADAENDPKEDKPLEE

B1: MBP-BRM (422-952)-HIS (protein)
chain: MQQPRQLNTPTPNLVAPSDTGPLSNSSLQSGQGTQQAQQRSGFTKQQLHVLKAQILAFRRLKKGEGSLPPELLQAISPPPLELQTQRQISPAIGKVQDRSSDKTGEDQARSLECGKESQAAASSNGPIFSKEEDNVGDTEVALTTGHSQLFQNLGKEATSTDVATKEEQQTDVFPVKSDQGADSSTQKNPRSDSTADKGKAVASDGSQSKVPPQANSPQPPKDTASARKYYGPLFDFPFFTRKLDSYGSATANANNNLTLAYDIKDLICEEGAEFLSKKRTDSLKKINGLLAKNLERKRIRPDLVLRLQIEEKKLRLSDLQSRVREEVDRQQQEIMSMPDRPYRKFVRLCERQRLEMNRQVLANQKAVREKQLKTIFQWRKKLLEAHWAIRDARTARNRGVAKYHEKMLREFSKRKDDGRNKRMEALKNNDVERYREMLLEQQTNMPGDAAERYAVLSSFLTQTEDYLHKLGGKITATKNQQEVEEAANAAAVAARLQGLSEEEVRAAATCAREEVVIRNRFTEMNAPKEN
GST-BCL7B-CFP
  binding result: binds
GST-BCL7A-YFP
  binding result: binds
